Source: paper PMC12638876
One block for each substance: values may come before it.

Experiments:
[1] = molecular target: CXE15 C14S mutant (Arabidopsis thaliana) (UniProt Q9FG13); test: MST
[2] = molecular target: CXE15 C14S fused to split YFP (Arabidopsis thaliana) (UniProt Q9FG13); test: split reporter
[3] = molecular target: full-length Arabidopsis thaliana CXE15 (Arabidopsis thaliana) (UniProt Q9FG13); test: MST

- Kd [1]: 4.5 µM
Substance: CXE15 C14S mutant (from UniProt Q9FG13 1-329) (enzyme)

- fold reduction of BiFC fluorescence against wild-type CXE15 [2]: > 2 fold
Substance: CXE15 C14S fused to split YFP (from UniProt Q9FG13 1-329) (enzyme)

- Kd [3]: 1.62 µM
Substance: full-length Arabidopsis thaliana CXE15 (from UniProt Q9FG13 1-329) (enzyme)
